According to article PMC4477864:

How the values were obtained:
[1] = target: CENP-F N558 (amino acids 1–558) (human); assay: sucrose gradient sedimentation + SEC
[2] = target: tubulin purified from cow brain (phosphocellulose-purified), assembled as vinblastine-induced curls, (cow) (UniProt Q2T9S0); assay: co-sedimentation
[3] = target: subtilisin-treated Taxol-stabilized MTs (S-MTs) (cow) (UniProt Q2T9S0); assay: TIRF microscopy of MT-associated GFP fluorescence
Sequence of subtilisin-treated Taxol-stabilized MTs (S-MTs) (cow) (Q2T9S0 whole entry, looked up): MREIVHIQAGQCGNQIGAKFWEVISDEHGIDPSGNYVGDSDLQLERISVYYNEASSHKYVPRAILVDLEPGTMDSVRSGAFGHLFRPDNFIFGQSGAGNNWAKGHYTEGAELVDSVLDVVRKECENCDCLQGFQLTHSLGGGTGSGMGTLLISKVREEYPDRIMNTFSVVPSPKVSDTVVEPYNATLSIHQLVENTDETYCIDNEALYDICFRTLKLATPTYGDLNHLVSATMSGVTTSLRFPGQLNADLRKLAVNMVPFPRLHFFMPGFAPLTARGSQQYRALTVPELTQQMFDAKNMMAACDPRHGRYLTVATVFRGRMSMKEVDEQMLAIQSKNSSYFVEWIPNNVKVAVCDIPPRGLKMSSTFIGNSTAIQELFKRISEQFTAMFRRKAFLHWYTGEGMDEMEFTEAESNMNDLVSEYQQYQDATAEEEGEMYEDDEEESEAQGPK

Substance | stoichiometry N [1] | Kd [2] | fold lower KD than for Tx-MTs [2] | fold stronger binding than to Tx-MTs [2] | fold reduction of MT-associated GFP fluorescence against untreated MTs [3]
CENP-F N558 (amino acids 1–558) (domain or fragment) | 2 | 16 nM | > 5 fold | < 2 fold | 
N436-sfGFP (CENP-F amino acids 1–436 fused to super-folding GFP) (domain or fragment) |  |  |  |  | 8 fold
